T1: recombinant murine MerTK extracellular domain (mouse, UniProt Q60805 19-497)
T1 construct: also called Mouse MerTK; murine MerTK ECD; not shown: polyHis or TEVS/Thrombin/murine IgG2a-Fc tag
T1 sequence: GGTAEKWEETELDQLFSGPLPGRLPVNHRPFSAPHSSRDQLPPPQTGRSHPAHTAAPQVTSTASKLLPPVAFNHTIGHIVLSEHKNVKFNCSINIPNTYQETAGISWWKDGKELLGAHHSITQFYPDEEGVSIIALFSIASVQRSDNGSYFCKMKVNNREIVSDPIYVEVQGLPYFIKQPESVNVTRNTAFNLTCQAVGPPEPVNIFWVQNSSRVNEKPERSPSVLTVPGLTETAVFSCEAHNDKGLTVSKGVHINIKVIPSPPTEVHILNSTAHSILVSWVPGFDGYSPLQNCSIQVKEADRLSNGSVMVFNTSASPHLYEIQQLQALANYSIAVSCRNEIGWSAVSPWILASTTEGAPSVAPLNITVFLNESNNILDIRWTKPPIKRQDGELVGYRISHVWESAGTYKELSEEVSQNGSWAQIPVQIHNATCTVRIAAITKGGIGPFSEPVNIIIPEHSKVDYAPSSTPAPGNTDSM

T2: MerTK N-terminal ECD Half-and-half chimera (human)
T2 construct: tested as culture supernatant; also called MerTK N-term half-and-half chimera; MerTK N-terminal ECD (NT-Ig1-Ig2) + Axl C-terminal ECD (FN1-FN2-JM)
T2 chain: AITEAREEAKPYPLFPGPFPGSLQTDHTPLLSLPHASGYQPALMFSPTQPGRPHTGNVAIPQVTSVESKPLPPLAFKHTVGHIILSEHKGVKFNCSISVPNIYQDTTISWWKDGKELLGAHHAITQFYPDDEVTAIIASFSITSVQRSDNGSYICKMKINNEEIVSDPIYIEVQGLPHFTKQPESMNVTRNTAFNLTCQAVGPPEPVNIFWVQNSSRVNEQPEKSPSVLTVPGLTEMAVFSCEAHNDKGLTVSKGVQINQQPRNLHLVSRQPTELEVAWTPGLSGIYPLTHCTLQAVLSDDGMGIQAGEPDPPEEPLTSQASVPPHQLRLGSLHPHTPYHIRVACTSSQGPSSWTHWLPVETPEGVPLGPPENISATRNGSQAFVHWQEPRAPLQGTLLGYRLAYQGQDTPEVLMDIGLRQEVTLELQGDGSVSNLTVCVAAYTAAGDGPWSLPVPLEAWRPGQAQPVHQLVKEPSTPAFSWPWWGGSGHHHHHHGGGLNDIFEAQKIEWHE

T3: recombinant cynomolgus MerTK extracellular domain (cynomolgus, UniProt Q12866 21-505 (human entry))
T3 construct: also called cyno MerTK ECD; not shown: polyHis or TEVS/Thrombin/murine IgG2a-Fc tag
T3 chain: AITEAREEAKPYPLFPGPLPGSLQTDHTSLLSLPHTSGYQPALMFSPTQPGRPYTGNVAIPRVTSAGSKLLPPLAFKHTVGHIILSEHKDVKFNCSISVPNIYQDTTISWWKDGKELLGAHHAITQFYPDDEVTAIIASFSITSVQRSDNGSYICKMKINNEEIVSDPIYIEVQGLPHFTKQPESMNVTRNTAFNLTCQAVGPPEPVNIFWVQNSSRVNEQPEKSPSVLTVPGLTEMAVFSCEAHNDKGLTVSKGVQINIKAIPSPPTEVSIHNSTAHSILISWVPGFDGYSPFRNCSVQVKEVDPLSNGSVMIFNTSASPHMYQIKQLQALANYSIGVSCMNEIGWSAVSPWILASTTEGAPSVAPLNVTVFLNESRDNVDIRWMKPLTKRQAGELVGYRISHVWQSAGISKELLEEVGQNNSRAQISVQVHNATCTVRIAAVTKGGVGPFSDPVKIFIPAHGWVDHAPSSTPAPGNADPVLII


Assays:
[1] = molecular target: T1, recombinant murine MerTK extracellular …; assay: SPR Carterra LSA, Ab immobilised
In short: (§1)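 Surface plasmon resonance on a Carterra LSA measured affinity of immobilized antibodies for human, cynomolgus or mouse MerTK ectodomain diluted in HBS-TE with 0.5 mg/ml BSA. Analytes flowed over the full array, surfaces were regenerated with Protein A/G Elution Buffer plus 1M NaCl or 10 mM Glycine pH 2.5, and spots binding under 25 RU were discarded before kinetic fitting.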

[2] = molecular target: T2, MerTK N-terminal ECD Half-and-half …; assay: SPR, construct supernatant over immobilised Ab
Procedure: Binding of anti-MerTK antibodies of the present disclosure to these domain-swapped chimera or deletion mutants was tested by Surface Plasmon Resonance (SPR) using Carterra LSA. Purified anti-MerTK antibodies were immobilized in duplicate on a HC30M chip (Carterra) by amine coupling, following the manufacturer's instructions (described previously).
Supernatants containing the constructs were diluted 1:1 with running buffer containing 0.5 mg/mL BSA (HBS-TE, Carterra; BSA, Sigma) and injected over the immobilized antibodies. The surface was regenerated with 10 mM Glycine pH2.0 after each construct injection. Sensorgrams were analyzed using Carterra Epitope software to identify patterns of construct binding. Loss of binding to MerTK constructs with domains deleted or swapped in from Axl and/or gain of binding to Axl constructs with MerTK domains swapped in were evaluated. Data from these studies were used to construct a domain binding map for anti-MerTK antibodies and their binding to various domains of human MerTK.

[3] = molecular target: T3, recombinant cynomolgus MerTK …; assay: SPR Carterra LSA, Ab immobilised
In short: as §1

Binder	Kd [1] [nM]	binding result [2]	Kd [3] [nM]	binding result [1]
MTK-203 (antibody, human IgG1, V domains shown) VH: QVQLQQPGAELVKPGASVKVSCKASGYTFTNYWMHWVKQRPGQGLEWIGRIHPFDTETNDNQKFKGKATLTVDKSSSTAYMQLSSLTSEDSAVYYCVIPANGGFAYWGQGTLVTVSA VL: ETTVTQSPASLSVATGEKVTIRCITSTDIGDDMNWYQQKPGEPPKVLISEGNSLRPGVPSRFSSSGYGTDFVFTIENTLSEDVADYFCLQSDNLPLTFGSGTKLEIK	400	no binding	–	–
MTK-206 (antibody, human IgG1, V domains shown) VH: QVQLQQSGAELARPGASVKMSCKASGYTFTSYTMHWVKQRPGQGLEWIGYINPSSGYIKNSQKFKDKATLTADKSSSTAYMQLSSLTSEDSAVYYCARTVYGYYGSSPDYWGQGTTLTVSS VL: DIQMTQSPSSLSASLGERVSLTCRASQDIGSNLNWLQQEPDGTIKRLIYATSSLESGVPKRFSGSRSGSDYSLTISSLESEDFVDYYCLQYDSSPWTFGGGTKLEIK	–	no binding	3700	no binding (tested: analyte up to 600 nM)
MTK-222 (antibody, human IgG1, V domains shown) VH: QVQLQQSGADLMKPGASVKLSCKATGYTFTGYWIEWVKQRPGHGLEWIGEILTGSGSSNYNEKFKGKATFTADSSSNTAFMQLSSLTTEDSAIYYCAGSYYSNSWFPYWGQGSLVTVSA VL: DIVLTQSPVSLAVSLGQRATISCRASESVDSYGSSFMHWYQQKPGQPPKLLIYRASSLESGIPARFSGSGSRTDFTLTINPVETDDVATYYCQQSNEDPRTFGGGTKLEIK	–	no binding	130	–
MTK-224 (antibody, human IgG1, V domains shown) VH: QVQLQQPGAELVKPGASVKVSCKASGYTFTSYWMHWVKQRPGQGLEWIGRIHPFDSDTNYNQKFKGKATLTVDKSSSTAYMQLSSLTSEDSAVYYCSIAGFAYWGQGTLVTVSA VL: DIVMTQSPATLSVTPGDRVSLSCRASQIISDYLNWYQQKSHESPRLLIKYASQSISGIPSRFSGSGSGSDFTLSINSVEPEDVGVYYCQNGHSFPLTFGAGTKLELK	430	no binding	–	–
MTK-209 (antibody, human IgG1, V domains shown) VH: QVQLQQPGAELVKPGASVKVSCKASGYTFTNYWIHWVKQRPGQGLEWIGRIHPFDSEPNYNQKFKGKATLTVDKSSSTAYMHLTSLTSEDSAVYYCALASFAYWGQGTLVTVSA VL: ETTVTQSPASLSMAMGEKATIRCITSTDIDDKMNWYQQKPGKPPKLLISAGNTLRPGVPSRFSSSGYGTDFVLTVENMLSEDVADYYCLQGGALPLTFGSGTKLEIK	460	no binding	–	–
MTK-227 (antibody, human IgG1, V domains shown) VH: EVKLVESGGGLVQPGGSLSLSCAASGFTFTDNYMTWVRQPPGKALEWLGFSRNKANGYTTEYSASVKGRFTISRDSSQSILYLQMNALRAEDSGTYYCARFPPHYYAGGYFDVWGTGTTVTVSS VL: DIQMTQSPASLSASVGETVTITCRASENIYSYLAWYQQKQGKSPQLLVYNAKTLAEGVPSRFSGSGSGTQFSLKINSLQPADFGSYYCQHYYRTPPTFGGGTKLEIK	8.3	no binding	78	–
MTK-214 (antibody, human IgG1, V domains shown) VH: QVQLQQPGAELVKPGASVKVSCKASGYTFTNYWMHWMKQRPGQGLEWIGRIHPFDSDTNYNEKFTDKATLTVDKSSSTAYMQLSSLTSEDSAVYYCAIGTLIYWGQGTTLTASS VL: DILLTQSPATLSVTPGETVSLSCRASQSIYKKLHWFQQRSHRSPRLLIKFASDSISGIPSRFTGSGSGTDYTLSINSVKPEDEAIYYCLQGYSTPLTFGAGTKLELK	320	no binding	–	–
MTK-230 (antibody, human IgG1, V domains shown) VH: EVQLQQSGPELVKPGASVRIPCKASGYTFSDYNMDWVKQSHGKSLEWIGNINPNIGGTIYSQKFKGKATLTVDKSSSTAYMELRSLTSEDTAVYYCARGDYGFASWGQGTLVTVSA VL: DIVLTQSPASLTVSLGQRATISCRASRSVSTSGYSYMHWYQQKPGQPPKLLIYLASNLESGVPARFSGSRSGTDFTLNIHPVEEEDAATYYCQHSREYPFTFGSGTKLEIK	29	no binding	–	–
MTK-210 (antibody, human IgG1, V domains shown) VH: QVQLQQSGPELVKPGASVKISCKASDYEFSRSWMNWVKQRPGKGLEWIGRIYPGDGDTNYNGKFKGKATLTADKSSNTAYMQLNSLTSEDSAVYFCARKGGYYYSISNYFDYWGQGTTLTVSS VL: QIVLTQSPAIMSASPGVKVTMTCSASSSVSYMHWYQQKPGSSPRLLIYDTSNLASGVPVRFSGSGSGTSYSLTISRMEAEDAATYYCQQWSSYPPYTFGGGTKLEIK	–	no binding	37	no binding (tested: analyte up to 600 nM)
MTK-212 (antibody, human IgG1, V domains shown) VH: QVQLQQSGPELVKPGASVKISCKASGYAFSSSWVNWVKQRPGKGLEWIGRIYPGDGDSNYNGNFKGKATLTADKSSNTAYLQLSSLTSEDSAVYFCARKSHFIYYTLDYWGQGTPVTVSS VL: DIVMTQSHKFKSTSVGDRVSIACKASQDVGTSVAWYQQKPGKSPKLLIYWASSRHTGVPDRFTGSGSGTDFTLTISNVQSEDLTDYFCQQYSTYPYTFGGGTKLEIK	11	no binding	1500	–

— patent US20240294650A1 (Alector, published 2024)
